Assay [1] addresses prostaglandin F2α receptor (FP), cDNA construct whose species the place does not tell.
Assay [2] deals with prostaglandin F2α receptor (FP). Briefly: [3H]PGF2α binding in COS cells co-transfected with FP and an FPRP variant construct. The settings on record: 3.5 μg FP cDNA construct and 5 μg test cDNA construct.
Assay [3] has as its target prostaglandin F2α receptor (FP), cDNA construct whose species the place does not tell. This is another data set of the same source.

B1: rat prostaglandin F2α receptor regulatory protein (FPRP) (protein)
chain: RVVRVPAGTLVRVVGTELVIPCNVSDYDGPSEQNFDWSFSSSGSSFVELASTWEVGFPAQQYRERLQRGDILLRRTANDAVELHIKNVQPSDQGHYKCSTPSTDATVQGNYEDTMQVKVLADALVVGPSSRPPPGLSLREGEPFELRCIASTTSPLHTHLALRWELHRGPVHRSILALSHEGRFHPGPGYEQRYHSGDVRLDTVGSDAYRLSVARALSADQGSYRCVVSEWITEQGSWQEIQEKAVEVATVVIQPTALQLAVPRTVSVTEGKDLDLSCNITTDRVDDVRPEVTWYFKKTPDTSLLASHMLARLDRDSLVHSSPHVALSHVDTRSYHLLVRDVSKENSGYYLCLVALWAPGHNRSWHKVAEAMSAPSGVSVTWLEPEYQVYLNASKVPGFSDDPTELQCRVIDTKRVDAGVRLTVSWYYRMNRRNDDVVASELLAVMDGDWTLRYGERSKQRAQDGEFIFSKEHTDTFSFRIQRTTEEDRGSYYCVVSAWTRQRNSSWVKSKDVFSKPVNIFWASEDSVLVVKARQPKPFFAAGNTFEMTCKVSSKNIKSPRYSVLITAEKPVGDLSSPNETKYIISLDQDSVVKLENWTDASRVDGVVLEKVQEDEFRYRMYQTQVSDAGLYRCMVTAWSPIGGSLWREAATSLSNPIEIDFQTSGPIFNASVHSDTLSVTRGDLIKLFCIVTVDGAVLDPDDMAFDVSWFAVHSFGLDKAPILLSSLDRKGVVTTGQRDWKSTVSLERVSVLEFLLQVHGSEDQDFGNYYCSVTPWVRSPTGSWQREAEIHSRPIFITVKMDVLNAFKYPLLIGVGLSTVIRLLSCLIGYCSSHWCCKKEVRETRRERRRLMSMEMD
Consider B1, for which, in assay [1], the % control ^3 H!PGF2α binding, co-culture of FPRP transfected cells with FP transfected cells 1:1 turned out to be 120 % control and the % control ^3 H!PGF2α binding, conditioned media from FPRP transfected cells on FP transfected cells was 103 % control. Moreover, in assay [2], the “inhibitory activity of FPRP variant on [^3 H]PGF2α binding” value is reported as “may be slightly more active at lower concentrations but does not inhibit quite as well as native FPRP (construct 232) at high concentrations”. This molecule also had an inhibition of ^3 H!PGF2α binding, saturation binding experiment in assay [3] of 60%.
